Consider 82 variants from the supplement of paper PMC7125110.

± gives the standard error. This sample holds only a part of the variants without activity.

The chains are these.
B1: glmS ribozyme (parent)
chain: AUAAAAGCGCCAGAACUACAGAAAUGUAGUUGACGAGGAGGAGGUUUAUCGAAUUUUCGGCGGAUGCCUCCAAA

In one data set the parent is B1. Put plainly: self-cleavage kobs at 10000 uM GlcN6P; higher = faster cleavage; RNA array. To be noted: with glucosamine-6-phosphate. The method, boiled down:
(§1)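 kcat and KM were obtained from weighted Michaelis–Menten fits across concentrations of kobs values. Those came from one- or two-exponential decay fits to per-tile medians normalised to baseline and to non-cleaving reference variants. The variants were barcoded ribozymes transcribed in situ by E. coli RNA polymerase on sequenced MiSeq chips and tracked through a hybridised Cy3 probe at 37 °C, with 40 μM to 10 mM glucosamine-6-phosphate in HEPES/KCl/Mg(OAc)2 buffer flowed in.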
Consider A15U U56G C71A, for which the “self-cleavage kobs at 10000 uM GlcN6P” value was found to be 0.000528 ± 0.00016 s⁻¹.

As to A48G G66A, the “self-cleavage kobs at 10000 uM GlcN6P” value is 2.4e-05 ± 1.2e-05 s⁻¹. Same read-out and setting: to G32A G40U C67U belongs less than 1e-05 s⁻¹; to G13U A39U C71U, 0.000606 ± 0.00012 s⁻¹; to G51C A52U U57C G59U, less than 1e-05 s⁻¹. Turning to A23C C71A, the “self-cleavage kobs at 10000 uM GlcN6P” value came out at 0.00399 ± 0.00084 s⁻¹. For the variant C16U U31A U45A, the “self-cleavage kobs at 10000 uM GlcN6P” value was 0.00606 ± 0.0026 s⁻¹. The same measure, in the same setting: with C8G A14C G38A U56A G59U the figure was less than 1e-05 s⁻¹. Still for that read-out and setting: to A15U C16U G29U C67A belongs 0.00151 ± 0.00034 s⁻¹. For C11G G40C U54A C70U C71G, the “self-cleavage kobs at 10000 uM GlcN6P” value was less than 1e-05 s⁻¹. Consider U31G U47C C61U C71U, for which the “self-cleavage kobs at 10000 uM GlcN6P” value was less than 1e-05 s⁻¹. Turning to A14C A42G C61A, the “self-cleavage kobs at 10000 uM GlcN6P” value was less than 1e-05 s⁻¹. Regarding C10A U46A A48G, the “self-cleavage kobs at 10000 uM GlcN6P” value was less than 1e-05 s⁻¹.

As to A14U U30A G40C, the “self-cleavage kobs at 10000 uM GlcN6P” value was 5.69e-05 ± 1.4e-05 s⁻¹. A15C U30C G62U: the “self-cleavage kobs at 10000 uM GlcN6P” value was less than 1e-05 s⁻¹.

As to G7A G29U G37C, the “self-cleavage kobs at 10000 uM GlcN6P” value is less than 1e-05 s⁻¹.

As for A15C U30G C68G, the “self-cleavage kobs at 10000 uM GlcN6P” value amounted to 0.000435 ± 0.00015 s⁻¹. With G7U G26U A52C, the “self-cleavage kobs at 10000 uM GlcN6P” value is less than 1e-05 s⁻¹.

For C8A A36U C61G G66A, the “self-cleavage kobs at 10000 uM GlcN6P” value was less than 1e-05 s⁻¹. With C16A U45G A64G, the “self-cleavage kobs at 10000 uM GlcN6P” value worked out at 0.000258 ± 5.1e-05 s⁻¹. Consider G40C A52C, for which the “self-cleavage kobs at 10000 uM GlcN6P” value is less than 1e-05 s⁻¹. For C8U C58G U69G, the “self-cleavage kobs at 10000 uM GlcN6P” value came out at 0.000536 ± 0.00016 s⁻¹. Consider G37U G43U G59A, for which the “self-cleavage kobs at 10000 uM GlcN6P” value is less than 1e-05 s⁻¹. Same read-out and setting: with C16A U31G C68U the figure was 4.49e-05 ± 1.5e-05 s⁻¹; with C10G G37A G60U, less than 1e-05 s⁻¹; with A52G U57C C67U, 0.000116 ± 2.5e-05 s⁻¹. The same measure, in the same setting: to U30C G35C G41U C71A belongs less than 1e-05 s⁻¹. As to A42U G62A U69G, the “self-cleavage kobs at 10000 uM GlcN6P” value is less than 1e-05 s⁻¹. Still for that read-out and setting: to A15U G43A G44C U45G belongs less than 1e-05 s⁻¹; to G32U G37U G43A A52G C67U, less than 1e-05 s⁻¹.

For the variant G13U A14C C58G, the “self-cleavage kobs at 10000 uM GlcN6P” value worked out at 7.6e-05 ± 1.7e-05 s⁻¹.

As for A52U G66U C67A, the “self-cleavage kobs at 10000 uM GlcN6P” value amounted to 8.48e-05 ± 2.8e-05 s⁻¹. As to A15U U30G G60C, the “self-cleavage kobs at 10000 uM GlcN6P” value was less than 1e-05 s⁻¹.

As for U30A C34G G43U C61U G63U, the “self-cleavage kobs at 10000 uM GlcN6P” value is less than 1e-05 s⁻¹. For A6C C34A G37U, the “self-cleavage kobs at 10000 uM GlcN6P” value was less than 1e-05 s⁻¹. With G35U G41U G62A, the “self-cleavage kobs at 10000 uM GlcN6P” value was less than 1e-05 s⁻¹.

G43U U55G: the “self-cleavage kobs at 10000 uM GlcN6P” value was 3.47e-05 ± 1.3e-05 s⁻¹. For the variant U54A G60U A64U, the “self-cleavage kobs at 10000 uM GlcN6P” value was less than 1e-05 s⁻¹.

For the variant U57G A64G, the “self-cleavage kobs at 10000 uM GlcN6P” value came out at 9.48e-05 ± 1.8e-05 s⁻¹. Take G41A C61G A64U: the “self-cleavage kobs at 10000 uM GlcN6P” value is less than 1e-05 s⁻¹. Turning to C8G A42U U55G, the “self-cleavage kobs at 10000 uM GlcN6P” value was less than 1e-05 s⁻¹.

For C11A U30G G43C C68G C71U, the “self-cleavage kobs at 10000 uM GlcN6P” value was determined as 0.000118 ± 3e-05 s⁻¹.

In the case of C10G U30A G37C A39U G62A, the “self-cleavage kobs at 10000 uM GlcN6P” value was less than 1e-05 s⁻¹.

In another data set the parent is B1. The experiment in a line: self-cleavage kobs at 2500 uM GlcN6P; higher = faster cleavage; RNA array. The conditions noted are these: with glucosamine-6-phosphate. In short, it runs like this: as §1
On to C8U G37U A39C, for which the “self-cleavage kobs at 2500 uM GlcN6P” value was less than 1e-05 s⁻¹. In the case of C34U A52U A53G A64U C70U, the “self-cleavage kobs at 2500 uM GlcN6P” value was less than 1e-05 s⁻¹.

C11G C34A G37U: the “self-cleavage kobs at 2500 uM GlcN6P” value is less than 1e-05 s⁻¹. In the case of G7C C10G A48C, the “self-cleavage kobs at 2500 uM GlcN6P” value was less than 1e-05 s⁻¹. The same measure, in the same setting: with A6C G13A G38U U57G A64U the figure was less than 1e-05 s⁻¹; with A6G G7A C16G U49C A53U C67U, less than 1e-05 s⁻¹; with C34U G35U G62C, less than 1e-05 s⁻¹. G38A A42G C68G: the “self-cleavage kobs at 2500 uM GlcN6P” value is less than 1e-05 s⁻¹. For A15G G35C G37U G43C, the “self-cleavage kobs at 2500 uM GlcN6P” value is less than 1e-05 s⁻¹. Regarding A33U G37C G38C G43A G51A, the “self-cleavage kobs at 2500 uM GlcN6P” value is less than 1e-05 s⁻¹. G37C C50G U54G G63U A64U: the “self-cleavage kobs at 2500 uM GlcN6P” value stood at 6.2e-05 ± 3e-05 s⁻¹. Turning to C34G G38A C70G, the “self-cleavage kobs at 2500 uM GlcN6P” value came to 5.16e-05 ± 2.4e-05 s⁻¹. U49C U56G G66C: the “self-cleavage kobs at 2500 uM GlcN6P” value was less than 1e-05 s⁻¹.

Take G37U G51C A52G C61U C67U: the “self-cleavage kobs at 2500 uM GlcN6P” value is less than 1e-05 s⁻¹. With G38U A42U U49A, the “self-cleavage kobs at 2500 uM GlcN6P” value was less than 1e-05 s⁻¹. Still for that read-out and setting: with G9U U47G C68U the figure was less than 1e-05 s⁻¹; with C16G G66A U69G, 5.74e-05 ± 2.8e-05 s⁻¹; with G7C C34A U57C G63C, less than 1e-05 s⁻¹. In the case of A36C G40U U55A U56G C70G, the “self-cleavage kobs at 2500 uM GlcN6P” value is less than 1e-05 s⁻¹. Same read-out and setting: to A39U G44U A53U belongs 0.000583 ± 0.00016 s⁻¹; to G13A G32U A39U, 4.61e-05 ± 8.8e-06 s⁻¹. U31C C34G A39U A42G U47C C70A: the “self-cleavage kobs at 2500 uM GlcN6P” value was less than 1e-05 s⁻¹. Turning to C11G A12G G29A U31G G43U U49A G51U U54C C61U, the “self-cleavage kobs at 2500 uM GlcN6P” value is less than 1e-05 s⁻¹.

Take G40C U47G G51A: the “self-cleavage kobs at 2500 uM GlcN6P” value is less than 1e-05 s⁻¹.

Consider G9U U31G G66U C71U, for which the “self-cleavage kobs at 2500 uM GlcN6P” value is less than 1e-05 s⁻¹. Take C8G G51C U54G: the “self-cleavage kobs at 2500 uM GlcN6P” value was less than 1e-05 s⁻¹.

For the variant A6U G37C A64G, the “self-cleavage kobs at 2500 uM GlcN6P” value was less than 1e-05 s⁻¹. With A14U U46C U47G, the “self-cleavage kobs at 2500 uM GlcN6P” value was 8.01e-05 ± 2.2e-05 s⁻¹.

For the variant A52G U57C C67U, the “self-cleavage kobs at 2500 uM GlcN6P” value came to 0.000161 ± 7.8e-05 s⁻¹. Consider C8U A15C G63C, for which the “self-cleavage kobs at 2500 uM GlcN6P” value was less than 1e-05 s⁻¹.

Consider C8A A42C A64G, for which the “self-cleavage kobs at 2500 uM GlcN6P” value is less than 1e-05 s⁻¹. As for A15C G60A G62U, the “self-cleavage kobs at 2500 uM GlcN6P” value was less than 1e-05 s⁻¹. On the same count and under the same terms, with G9A C16G A33C G51U U54A C58U the figure was less than 1e-05 s⁻¹; with C8A G32C C34G A42U C61A, less than 1e-05 s⁻¹; with G59U U65A C68U, less than 1e-05 s⁻¹. Take G29C C34G G51U U54A U65A C70U: the “self-cleavage kobs at 2500 uM GlcN6P” value was less than 1e-05 s⁻¹. In the case of G35U G41U G62A, the “self-cleavage kobs at 2500 uM GlcN6P” value was less than 1e-05 s⁻¹. On to C8A G29C G37C A39U G43A U45G G51A, for which the “self-cleavage kobs at 2500 uM GlcN6P” value was less than 1e-05 s⁻¹. G43C U45A C68G: the “self-cleavage kobs at 2500 uM GlcN6P” value came to 0.00405 ± 0.0014 s⁻¹. On the same count and under the same terms, with A15U A33C U45G G51U U55G the figure was less than 1e-05 s⁻¹; with C8U A15C C71G, less than 1e-05 s⁻¹. As for C11A U30G G43C C68G C71U, the “self-cleavage kobs at 2500 uM GlcN6P” value was found to be 0.000269 ± 9.8e-05 s⁻¹.
